# In patent US20220088148A1 (HANMI PHARM, published 2022):
# Bridges are numbered along the chain shown (N, C = ends). Where no end group is shown, it is not given here. [ ]: non-standard residue; d: D form. The star is where a group is joined. Acetyl(2-(4-imidazolyl)) = O=C(Cc1c[nH]cn1)*; Aib = CC(C)(N)C(=O)O
# T1: human GIP receptor (human, UniProt P48546 22-466)
# T1 sequence (looked up): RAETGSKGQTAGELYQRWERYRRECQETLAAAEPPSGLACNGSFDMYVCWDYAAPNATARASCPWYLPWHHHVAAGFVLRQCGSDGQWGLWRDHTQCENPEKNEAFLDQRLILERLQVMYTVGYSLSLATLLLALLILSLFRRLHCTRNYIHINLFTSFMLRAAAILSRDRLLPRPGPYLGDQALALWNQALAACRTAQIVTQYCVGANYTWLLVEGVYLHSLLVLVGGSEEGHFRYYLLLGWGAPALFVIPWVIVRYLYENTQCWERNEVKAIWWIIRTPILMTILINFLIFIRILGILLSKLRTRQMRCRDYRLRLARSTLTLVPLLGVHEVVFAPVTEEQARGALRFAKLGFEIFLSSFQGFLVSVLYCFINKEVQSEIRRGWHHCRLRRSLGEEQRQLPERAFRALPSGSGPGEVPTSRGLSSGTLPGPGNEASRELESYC
# Legend:
# Assay in all cases: cell-based or functional assay
# [1] = biological target: human GCG receptor (human, UniProt P47871 26-477)
# Sequence of human GCG receptor (P47871 26-477): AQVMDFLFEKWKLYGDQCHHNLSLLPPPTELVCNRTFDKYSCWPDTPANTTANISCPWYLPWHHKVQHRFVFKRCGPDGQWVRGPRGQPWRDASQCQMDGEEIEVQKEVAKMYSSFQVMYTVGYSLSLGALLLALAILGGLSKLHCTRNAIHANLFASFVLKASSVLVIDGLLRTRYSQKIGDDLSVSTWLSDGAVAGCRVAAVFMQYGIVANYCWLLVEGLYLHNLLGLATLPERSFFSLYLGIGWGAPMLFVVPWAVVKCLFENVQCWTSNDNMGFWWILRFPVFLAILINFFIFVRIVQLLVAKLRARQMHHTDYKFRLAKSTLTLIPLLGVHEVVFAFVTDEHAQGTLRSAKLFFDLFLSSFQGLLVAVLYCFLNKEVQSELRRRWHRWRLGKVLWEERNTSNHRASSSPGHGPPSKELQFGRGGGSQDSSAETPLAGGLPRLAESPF
# [2] = biological target: T1, human GIP receptor
# [3] = biological target: human GLP-1 receptor (human, UniProt P43220 24-463)
Binder,"In vitro activity (%) vs. Glucagon, cAMP EC50 [1] [%]","In vitro activity (%) vs. GIP, cAMP EC50 [2] [%]","In vitro activity (%) vs. GLP-1, cAMP EC50 [3] [%]"
[Acetyl(2-(4-imidazolyl))]GQGTFTSDLSIQYDSEHQRDFIEWLKDTGPSSGAPPPSHG [triple agonist of SEQ ID NO: 19],< 0.1,< 0.1,< 0.1
H[Aib]QGTFTSDYSKYLDEKRAQEFVCWLLAQKGKKNDWKHNIT [triple agonist of SEQ ID NO: 28],1.6,< 0.1,17.2
[Acetyl(2-(4-imidazolyl))]GQGTFTSDLSKQMDSEAQQLFIEWLKNGGPSSGAPPPSHG [triple agonist of SEQ ID NO: 16],< 0.1,< 0.1,2.1
Y[Aib]QGTFTSDYSKYLDEKRAKEFVQWLLDCHPSSGQPPPS (bridge 16-20; ends not checked) [triple agonist of SEQ ID NO: 97],62.8,2.6,10.5
Y[Aib]QGTFTSDYSKALDEKAAKEFVNWLLDQHPSSGQPPPSC (bridge 16-20) [triple agonist of SEQ ID NO: 101],13.9,40.1,23.2
H[Aib]QGTFTSDYSKYLDEKAQKEFVQWLLDTC (bridge 16-20) [triple agonist of SEQ ID NO: 30],0.7,0.8,142
[Acetyl(2-(4-imidazolyl))]GEGTFTSDLSKYLDSRRQQLFVQWLKAGGPSSGAPPPSHG [triple agonist of SEQ ID NO: 11],< 0.1,< 0.1,1.4
Y[Aib]QGTFTSDYSKYLDECRAKEFVQWLLDHHPSSGQPPPS (bridge 16-20) [triple agonist of SEQ ID NO: 21],267,22.7,17.8
H[Aib]QGTFTSDVSSYLDGQAQKEFIAWLVKGC [triple agonist of SEQ ID NO: 2],< 0.1,< 0.1,5.9
Y[Aib]QGTFTSDYSKYLDECRAKEFVQWLLAQKGKKNDWKHNIT (bridge 16-20) [triple agonist of SEQ ID NO: 23],9.3,< 0.1,4.01
H[Aib]QGTFTSDYSIAMDEIHQKDFVNWLLAQKC (bridge 16-20) [triple agonist of SEQ ID NO: 33],< 0.1,10.4,24.5
[Acetyl(2-(4-imidazolyl))]GQGTFTSDLSIQYEEEAQQDFVEWLKDTGPSSGAPPPSHG [triple agonist of SEQ ID NO: 20],< 0.1,< 0.1,< 0.1
Y[Aib]QGTFTSDYSKALDEKAAKDFVNWLLDQHPSSGQPPPSC (bridge 16-20; ends not checked) [triple agonist of SEQ ID NO: 102],29.5,58,23.3
[Acetyl(2-(4-imidazolyl))]GQGTFTSDYSIQLDEIAVRDFVEWLKNGGPSSGAPPPSHG [triple agonist of SEQ ID NO: 14],< 0.1,< 0.1,28
[Acetyl(2-(4-imidazolyl))]GEGTFISDYSIQLDEIAVQDFVEWLLAQKPSSGAPPPSHG [triple agonist of SEQ ID NO: 13],< 0.1,< 0.1,< 0.1
[Acetyl(2-(4-imidazolyl))]GQGTFTSDLSKQMDEERAREFIEWLLAQKPSSGAPPPSHG [triple agonist of SEQ ID NO: 17],< 0.1,< 0.1,0.2
Y[Aib]QGTFTSDYSKALDEKAAKEFVQWLLDQHPSSGQPPPSC (bridge 16-20) [triple agonist of SEQ ID NO: 100],12.7,118,42.2
Y[Aib]QGTFTSDYSKALDEKAAKDFVNWLLDHHPSSGQPPPSC (bridge 16-20; ends not checked) [triple agonist of SEQ ID NO: 99],14.9,57.7,20.9
[Acetyl(2-(4-imidazolyl))]GEGTFISDLSKYMDEQAVQLFVEWLMAGGPSSGAPPPSHG [triple agonist of SEQ ID NO: 12],< 0.1,< 0.1,0.4
H[Aib]QGTFTSDYSKYLDEKAAKEFVQWLLNTC (bridge 16-20) [triple agonist of SEQ ID NO: 29],6,< 0.1,38.5
Y[Aib]QGTFTSDYSKALDEKAAKEFVNWLLDHHPSSGQPPPSC (bridge 16-20; ends not checked) [triple agonist of SEQ ID NO: 98],8.2,47.1,28.1
Y[Aib]QGTFTSDYSKCLDEKRAKEFVQWLLDHHPSSGQPPPS (bridge 16-20) [triple agonist of SEQ ID NO: 22],140,59.7,20.1
H[Aib]QGTFTSDYSKYLDEKACKEFVQWLLAQ (bridge 16-20) [triple agonist of SEQ ID NO: 31],2.2,2.4,135
[Acetyl(2-(4-imidazolyl))]GQGTFTSDLSKQMDSERAREFIEWLKNTGPSSGAPPPSHG [triple agonist of SEQ ID NO: 18],< 0.1,< 0.1,< 0.1
H[Aib]QGTFTSDVSSYLLGQAAKQFIAWLVKGGGPSSGAPPPSC [triple agonist of SEQ ID NO: 3],< 0.1,< 0.1,1.8
